Among the targets are RPRD1B (UniProt Q9NQG5); RPRD2 (UniProt Q5VT52); SCAF8 (UniProt Q9UPN6); SCAF4 (UniProt O95104).
What all share (experiment): biotin-peptide pull-down, MUDPIT mass spectrometry
Setting [1] is: reference: unphosphorylated CTD peptide, sites S2.
Setting [2] is: reference: unphosphorylated CTD peptide, sites S5.
Setting [3] is: reference: unphosphorylated CTD peptide, sites Y1.
[4] abbreviates: reference: pS2-CTD peptide, sites Y1.

As for “RNA polymerase II largest subunit (Rpb1) C-terminal repeated domain (CTD) (from UniProt P24928) pS2-CTD peptide”, the “other: number of peptides identified” value in the test with RPRD1B (setting [1]), with RPRD2 (setting [1]), with SCAF8 (setting [1]) and in the test with SCAF4 (setting [1]) was “gained; reference 0” each time.
“RNA polymerase II largest subunit (Rpb1) C-terminal repeated domain (CTD) (from UniProt P24928) pS5-CTD peptide”: the “other: number of peptides identified” value with RPRD1B (setting [2]), with RPRD2 (setting [2]), in the test with SCAF8 (setting [2]) and with SCAF4 (setting [2]) was “none in both; reference 0” in each case.
“RNA polymerase II largest subunit (Rpb1) C-terminal repeated domain (CTD) (from UniProt P24928) pY1-CTD peptide”: the “other: number of peptides identified” value with RPRD1B (setting [3]), with RPRD2 (setting [3]), with SCAF8 (setting [3]) and in the test with SCAF4 (setting [3]) was “none in both; reference 0” each time.
Take “RNA polymerase II largest subunit (Rpb1) C-terminal repeated domain (CTD) (from UniProt P24928) pY1pS2-CTD peptide”: the “other: number of peptides identified” value in the test with RPRD1B (setting [4]) is on record as “weaker; reference 40”; with RPRD2 (setting [4]), “weaker; reference 63”; in the test with SCAF8 (setting [4]), “lost; reference 17”; with SCAF4 (setting [4]), “weaker; reference 12”.

(Values after publication PMC4627417.)
